Data on 62 molecules can be found in patent US20200087364A1 (IMMATICS BIOTECHNOLOGIES, published 2020).

B1: KASSVSAEDGY (peptide)
peptide: KASSVSAEDGY
B2: NSNLKFLEV (peptide)
peptide: NSNLKFLEV
B3: LEDGIEQSAY (peptide)
peptide: LEDGIEQSAY
B4: VVFDKSDLAKY (peptide)
peptide: VVFDKSDLAKY
B5: STIDFRAGF (peptide)
peptide: STIDFRAGF
B6: HTMEVTVY (peptide)
peptide: HTMEVTVY
B7: EAYLERIGY (peptide)
peptide: EAYLERIGY
B8: ASCRSSAEY (peptide)
peptide: ASCRSSAEY
B9: FLKVTGYDKDDY (peptide)
peptide: FLKVTGYDKDDY
B10: SPAKQFNIY (peptide)
peptide: SPAKQFNIY
B11: LLKAKDILY (peptide)
peptide: LLKAKDILY
B12: SIEVFTHY (peptide)
peptide: SIEVFTHY
B13: AQVQDTGRY (peptide)
peptide: AQVQDTGRY
B14: YEVDTKLLSL (peptide)
peptide: YEVDTKLLSL
B15: YTDFVGEGLY (peptide)
peptide: YTDFVGEGLY
B16: NTHTGTRPY (peptide)
peptide: NTHTGTRPY
B17: IGDKVDAVY (peptide)
peptide: IGDKVDAVY
B18: IEKFAVLY (peptide)
peptide: IEKFAVLY
B19: HSIEVFTHY (peptide)
peptide: HSIEVFTHY
B20: TTDPKKFQY (peptide)
peptide: TTDPKKFQY
B21: STALSILLL (peptide)
peptide: STALSILLL
B22: SAPSSSGSPLY (peptide)
peptide: SAPSSSGSPLY
B23: RSDIGEFEW (peptide)
peptide: RSDIGEFEW
B24: YLDSSKPAVY (peptide)
peptide: YLDSSKPAVY
B25: ASDHWRGRY (peptide)
peptide: ASDHWRGRY
B26: LCATVCGTEQY (peptide)
peptide: LCATVCGTEQY
B27: IPVHDSVGVTY (peptide)
peptide: IPVHDSVGVTY
B28: ITDVGPGNY (peptide)
peptide: ITDVGPGNY
B29: PIMSSSQALY (peptide)
peptide: PIMSSSQALY
B30: RTIEGDFLW (peptide)
peptide: RTIEGDFLW
B31: EVVEGKEWGSFY (peptide)
peptide: EVVEGKEWGSFY
B32: VPFNLITEY (peptide)
peptide: VPFNLITEY
B33: QSEKEPGQQY (peptide)
peptide: QSEKEPGQQY
B34: FTTLSDLQTNMA (peptide)
peptide: FTTLSDLQTNMA
B35: FQYELRELY (peptide)
peptide: FQYELRELY
B36: DAVAPGREY (peptide)
peptide: DAVAPGREY
B37: ISEDKSISF (peptide)
peptide: ISEDKSISF
B38: TTENSGNYY (peptide)
peptide: TTENSGNYY
B39: GLIEVVTGY (peptide)
peptide: GLIEVVTGY
B40: AVAAAAGASLY (peptide)
peptide: AVAAAAGASLY
B41: YLEDRPLSQ (peptide)
peptide: YLEDRPLSQ
B42: YTEFVDATFTK (peptide)
peptide: YTEFVDATFTK
B43: PVHDSVGVTY (peptide)
peptide: PVHDSVGVTY
B44: ITDTLIHLM (peptide)
peptide: ITDTLIHLM
B45: EVTDRNMLAF (peptide)
peptide: EVTDRNMLAF
B46: TLDSTRTLY (peptide)
peptide: TLDSTRTLY
B47: NEIDIHSIYFY (peptide)
peptide: NEIDIHSIYFY
B48: VSERTGISY (peptide)
peptide: VSERTGISY
B49: SADEAHGLL (peptide)
peptide: SADEAHGLL
B50: HVSGQMLYF (peptide)
peptide: HVSGQMLYF
B51: RTHIGYKVY (peptide)
peptide: RTHIGYKVY
B52: TPIPFDKILY (peptide)
peptide: TPIPFDKILY
B53: GTKQWVHARY (peptide)
peptide: GTKQWVHARY
B54: ITDTLIHL (peptide)
peptide: ITDTLIHL
B55: YIGLKGLYF (peptide)
peptide: YIGLKGLYF
B56: LSDAVHVEF (peptide)
peptide: LSDAVHVEF
B57: TFDKQIVLL (peptide)
peptide: TFDKQIVLL
B58: RRLNFSGFGY (peptide)
peptide: RRLNFSGFGY
B59: SQHIFTVSY (peptide)
peptide: SQHIFTVSY
B60: LTWAHSAKY (peptide)
peptide: LTWAHSAKY
B61: TVFDENLSRY (peptide)
peptide: TVFDENLSRY
B62: ISEAPLTEV (peptide)
peptide: ISEAPLTEV

The target in this assay is T1, HLA-A*01:01 (human).
T1 construct: MHC class I monomer first loaded with a UV-sensitive peptide (not identified) that is cleaved by UV irradiation and exchanged for the tested peptide; captured on streptavidin plates, detected with anti-β2m; also called peptide-receptive MHC molecules
Kind of assay: UV-ligand exchange, anti-b2m ELISA. The source says:
Candidate peptides for T cell based therapies according to the present invention were further tested for their MHC binding capacity (affinity). The individual peptide-MHC complexes were produced by UV-ligand exchange, where a UV-sensitive peptide is cleaved upon UV-irradiation and exchanged with the peptide of interest as analyzed. Only peptide candidates that can effectively bind and stabilize the peptide-receptive MHC molecules prevent dissociation of the MHC complexes. To determine the yield of the exchange reaction, an ELISA was performed based on the detection of the light chain (β2m) of stabilized MHC complexes. The assay was performed as generally described in Rodenko et al. (Rodenko et al., 2006)
96 well MAXISorp plates (NUNC) were coated over night with 2 ug/ml streptavidin in PBS at room temperature, washed 4× and blocked for 1 h at 37° C. in 2% BSA containing blocking buffer. Refolded HLA-A*02:01/MLA-001 monomers served as standards, covering the range of 15-500 ng/ml. Peptide-MHC monomers of the UV-exchange reaction were diluted 100-fold in blocking buffer. Samples were incubated for 1 h at 37° C., washed four times, incubated with 2 ug/ml HRP conjugated anti-β2m for 1 h at 37° C., washed again and detected with TMB solution that is stopped with […]. Absorption was measured at 450 nm.
Regarding B1, the peptide exchange yield lay within 20 to 50%. In turn, B2 returned a peptide exchange yield of 20 to 50%. B3 showed a peptide exchange yield of 20 to 50%.

On to B4, for which the peptide exchange yield lay in the range of 20 to 50%. As for B5, the figure is 20 to 50%; as for B6, 50 to 75%.

Consider B7, for which the peptide exchange yield fell in the range of 50 to 75%. As for B8, the figure is greater than 75%; as for B9, 20 to 50%. As to B10, the peptide exchange yield lay in the range of 50 to 75%. B11 displayed a peptide exchange yield of 20 to 50%. B12 showed a peptide exchange yield of 50 to 75%. The molecule B13 showed a peptide exchange yield of 50 to 75%. B14 displayed a peptide exchange yield of 20 to 50%. Consider B15, for which the peptide exchange yield lay within 50 to 75%. Turning to B16, the peptide exchange yield was 20 to 50%. Turning to B17, the peptide exchange yield was 20 to 50%. B18 registered a peptide exchange yield of 50 to 75%.

As for B19, the peptide exchange yield lay in the range of 20 to 50%. As for B20, the figure is greater than 75%. B21: the peptide exchange yield lay within 20 to 50%. In turn, B22 showed a peptide exchange yield of 20 to 50%.

As for B23, the peptide exchange yield lay in the range of 20 to 50%. For B24, the peptide exchange yield was in the range of 50 to 75%.

The molecule B25 gave a peptide exchange yield of 50 to 75%. B26: the peptide exchange yield lay within 20 to 50%.

With B27, the peptide exchange yield was in the range of 50 to 75%. B28 came in with a peptide exchange yield of 50 to 75%.

In turn, B29 displayed a peptide exchange yield of 20 to 50%. Take B30: the peptide exchange yield lay in the range of 20 to 50%. Take B31: the peptide exchange yield was 50 to 75%.

The molecule B32 registered a peptide exchange yield of 10 to 20%.

Molecule B33 registered a peptide exchange yield of 50 to 75%. On to B34, for which the peptide exchange yield was in the range of 20 to 50%. In the case of B35 it was greater than 75%.

As to B36, the peptide exchange yield fell in the range of 20 to 50%.

The molecule B37 displayed a peptide exchange yield of 20 to 50%. Molecule B38 returned a peptide exchange yield greater than 75%.

In turn, B39 gave a peptide exchange yield greater than 75%. B40 had a peptide exchange yield of 20 to 50%. For B41, the peptide exchange yield was 20 to 50%. The molecule B42 gave a peptide exchange yield greater than 75%. As to B43, the peptide exchange yield fell in the range of 20 to 50%.

As for B44, the peptide exchange yield lay within 50 to 75%. B45 yielded a peptide exchange yield of 50 to 75%.

B46 came in with a peptide exchange yield greater than 75%. The molecule B47 came in with a peptide exchange yield of 20 to 50%. For B48, the peptide exchange yield is 50 to 75%. As for B49, the figure is 20 to 50%; as for B50, 20 to 50%; as for B51, 50 to 75%. In the case of B52 it was 20 to 50%; in that of B53, 10 to 20%; in that of B54, 20 to 50%. With B55, the peptide exchange yield lay in the range of 20 to 50%.

B56 yielded a peptide exchange yield of 50 to 75%. B57 showed a peptide exchange yield of 20 to 50%. As to B58, the peptide exchange yield fell in the range of 50 to 75%.

Consider B59, for which the peptide exchange yield lay within 20 to 50%. In the case of B60 it was 50 to 75%.

The molecule B61 had a peptide exchange yield of 20 to 50%. For B62, the peptide exchange yield is 20 to 50%.
